{
  "source": "the DeepSol protein solubility set",
  "data": [
    {"assay": "soluble on expression in E. coli; label from the status in PepcDB or PDB records", "values": [
      {"sequence": "MILLPLHCGHVPCFPPLELPVTHVAVIGAGFSGLAAALRLAQAGAQVTVLDALDRPGGKAALGYDDFSSGPTVVTMPQIFAALHARLGWDAPALTPAHPTTTYHALSGRTFAPEALNVVGSLDPTMTQLSRAEGRRYRQLLFAARQMYSGAADTFLFAPPPTRTQLAQYALRAGRQAAPLTPLARYVRSGPFLTPFWLRFATYLGADPYRAPAVLHNIAWVELGDGIWHLPGGLLALAERLYAEALDRGVRFEFGIQVQHLSTHGGRVLGAHTSRGAFAADRWVSAADRALTLGWLGQDTPTTPRGVSGFALQLRLGEDLGQGHHIFWPADYAREWQDIRAGRLPSEPTLYLHLDGPRAFLLVNAPPDPRLGLSPERKADYARHLLQRLQSRFPLPVVEWQALAPADYARTGLGGALYGRAPHGLLGSLRPGWRLPQARNLVQVGGTVHPGGGVPLSLLSGWNGAGSLLGLDYDSLDGEKAFGKPAPAIKLEHHHHHH", "soluble on expression in E. coli": "not soluble"},
      {"sequence": "ADPWQECMDYAVTLARQAGEVVCEAIKNEMNVMLKSSPVDLVTATDQKVEKMLISSIKEKYPSHSFIGEESVAAGEKSILTDNPTWIIDPIDGTTNFVHRFPFVAVSIGFAVNKKIEFGVVYSCVEGKMYTARKGKGAFCNGQKLQVSQQEDITKSLLVTELGSSRTPETVRMVLSNMEKLFCIPVHGIRSVGTAAVNMCLVATGGADAYYEMGIHCWDVAGAGIIVTEAGGVLMDVTGGPFDLMSRRVIAANNRILAERIAKEIQVIPLQRDDED", "soluble on expression in E. coli": "soluble"},
      {"sequence": "MAKNIPFKLILEKAKDYQADMTRFLRDMVAIPSESCDEKRVVHRIKEEMEKVGFDKVEIDPMGNVLGYIGHGPRLVAMDAHIDTVGIGNIKNWDFDPYEGMETDELIGGRGTSDQEGGMASMVYAGKIIKDLGLEDEYTLLVTGTVQEEDCDGLCWQYIIEQSGIRPEFVVSTEPTDCQVYRGQRGRMEIRIDVQGVSCHGSAPERGDNAIFKMGPILGELQELSQRLGYDEFLGKGTLTVSEIFFTSPSRCAVADSCAVSIDRRLTWGETWEGALDEIRALPAVQKANAVVSMYNYDRPSWTGLVYPTECYFPTWKVEEDHFTVKALVNAYEGLFGKAPVVDKWTFSTNGVSIMGRHGIPVIGFGPGKEPEAHAPNEKTWKSHLVTCAAMYAAIPLSWLATE", "soluble on expression in E. coli": "soluble"},
      {"sequence": "MITYYVRQLKTFSIMSLTLSNVILHKLVKNEQDELEVCLRNQTLENEEFTEALVSELHRVFNSKAGKGFGVFKTESEFGHWLSSVRKNETPFLEFSNNSAEKLKSELIKYPFAEEGILVIAEYQSLATEYLFVAVLPSNESMKVTEQLDISATDYLDIAKMDIAARIDLSTWETDSDSNRYLTFIKGRVGRKVSDFFLDFLQADVGMDTKVQNQVLMQAVEDFCADERLDQEEKQPYRKQVYDYCNGQLQAGEELTVKELASELPTSESGSNFYQFAEEQGYELEESFPVDRTALRKLTKFVGAGGGLSLNFDAMLLGERVFYDPETDTLTIKGTPPNLKDQLEHHHHHH", "soluble on expression in E. coli": "not soluble"},
      {"sequence": "KFTLGQFFGAAKIAGKAFMFKADEPEDLIAKIVEMADAARKGGFLALEEMEINNSFMQKGIDLLVDGHDADVVRAALQKDIALTDERHTQGTGVFRAFGD", "soluble on expression in E. coli": "not soluble"},
      {"sequence": "MGQVSAASTILINAEPTATLDALADYETVRPKILSPHYSEYQVLEGGKGRGTVAKWRLQATQSRVRDVQVNVDVAGHTVIEKDMNSSMVTNWTVAPAGPGSSVTVKTTWTGAGGVKGFFEKTFAPLGLKKIQAEVLSNLKTELEGDA", "soluble on expression in E. coli": "soluble"},
      {"sequence": "MGSDKIHHHHHHMNITPKSIIGDIKKKNGNINRVIFTGCGASMADLYPGYYFISHESKHLLSSIMQANEFNYDTPKDVNENTIVITASLGGSTPESVEATKHARELGAHVVTLSHVPNSAIINEAEYSLVHGFEEDYAHKTEKMTLALQLAIEIVNQFEGYDYYADAQKAFEGLFNLINQEANMVAPAAEEFVTKYKDENTIYVLGSGASADVAYSTASFLFMEMQWISSPTIHSGEFFHGPFELALKDTPYLLFMSDGNTRHLDARAMAFLQRFDTKLTVIDAKDHGLASIASSNVIDYFNPMLITGVMRVYAEKLAEARQHPLTQRRYMWKLENY", "soluble on expression in E. coli": "not soluble"},
      {"sequence": "MAAGVAAWLPFARAAAIGWMPVASGPMPAP", "soluble on expression in E. coli": "soluble"},
      {"sequence": "MGMKFLNKKGWHTGSLRNIETVWKAEQKQEAEQKKLEELRLQILQERERSEFRALQEQAGLIPRQERLEFLYDSGLAVGKGSASGSGVSFQKEEQPLAKSEAGSSASEKPDQSAPGALFEEKAQSANDSWRKLHSDPLLLIRQREQEALAKIKNNPVKMALIRKSVEEKGKGKDGDTKEHKKKHKRKSGKHQKQSSSRQRSDSEEDSGEENNGRKSHHQKTSGTHDRHYERPRSDLEDESKGRESRDRHYEKRRSELDDGHKRRERHDTHYERRRSEMDDESKRRESRDNHYERRRSDLDDESKRRESHDKHFERQRSDLDDEYKRRESQDKRRRSDIDDEPKRRDARPNEKYRNRSPKGGVERENLKSYGQEDKKRKAEDLDSGKPNEYQNRRRKGGSKLSEEERAARLKQMQMDAEVHEEQRWTRLKKADETDAVEADKNKVSTGKSFLDDANKSVYGVEKGGSSTIEESVRRRSYYSQRGTAAEGNAFRR", "soluble on expression in E. coli": "not soluble"},
      {"sequence": "MGSDKIHHHHHHMTVDSPILTDTLVVGGGQAGIAMSEHLTGQGVPHIVLERDRIAQRWRTGRWDSLVANGPAWHDRFPGLEFEGLDPDGFASKDAVADYLEAYARKFNAPIRTGVEVVRAERNGGRYGFTVETSAGTYEAQRIVVATGPFQRPVIPAIAPRDPALTQIHSADYRNPGQLPEGAVLVIGAGSSGVQIADELQRAGREVYLSVGPHDRPPRRYRGRDFCWWLGVLGLWDQETVQPGREHVTIAVSGTDGGRTIEFRALAHQGITLVGVTKSFRDGVVAFENDLAENVARGDANHFALLDAADAYIARNGLSLPDEPQARRVPPDPACMTEPILQLDLAAANVTSIIWATGYAAEYGWLNVDAFDANGKPRHQRGVSSEPGVYFLGLPWLSRRGSAFLWGVWHDAKHIAGHIAMQRNYLSYPDFGQSQQ", "soluble on expression in E. coli": "not soluble"},
      {"sequence": "FMFKHIIARTPARSLVDGLTSSHLGKPDYAKALEQHNAYIRALQTCDVDITLLPPDERFPDSVFVEDPVLCTSRCAIITRPGAESRRGETEIIEETVQRFYPGKVERIEAPGTVEAGDIMMVGDHFYIGESARTNAEGARQMIAILEKHGLSGSVVRLEKVLHLKTGLAYLEHNNLLAAGEFVSKPEFQDFNIIEIPEEESYAANCIWVNERVIMPAGYPRTREKIARLGYRVIEVDTSEYRKIDGGVSSMSLRF", "soluble on expression in E. coli": "soluble"},
      {"sequence": "MSLTVSKINEKATPVKKWTVYLVQHTHTDIGYTKPQTEILSEHLRYIDYAIEYCEQTKDYTNDAKFRWTCESAWAVDEYLKNRPEEQVNKLKKYIAEGQIEVASMYFNMSEIVDENSFKTFLQPVKEFRKHGIPSALAMQNDVNGIAWCLADYLPDLGIKYLWMGEHHYKSQVPFNMPTVFQWESPSGKPILTYRADHYNTGNFWGIEQGDIQKTEPKLLHYLSELERKHYPFDAVGVQYSGYFTDNSPPSIIECKLIREWNEKYAYPKLRSATASEFMDYVTERYGDKIPAYRAAYPDWWTDGFGSAARETAASRKTHSDMTAVEGLLSMAVLKDKCLPQATHQQIEHIHESLLFYDEHTFGASESVSDPLCENSQVQWGEKSAYAWEAVKRTQMLYETSVGLLQGDLRRGKNPTLTIFNTLNWKRSEMLTVYIDFEVIPRNQFFEITDFQGHSLKVQPIRYRREGCYYAIFAEDIPPMGYKTFEIVFKQPSTDTGTITINNASIENHFYKLQLNPDKGTIQSLYDKELNCELVDSSSPWELGAFIYEKLGNRDQLAQYRLDDYNRTGLSECRIIDSSNGPIYQRILLQGKSPGTDEAFGVNLEIKLYHDTKRIELEYAIKRLPETDPSGIYVAFPFQLPEGKLAFDVQGGTVISGKNQLEGTSTDWNTVQNFVSVQNNQAQIIIGSSLIPLYQLGDINLGKFQYQKQYERPHVYSWVMNNYWNTNFKASQEGEFRWSYHLTSSVDPSNNLATKFGWSSRIPLYARVMPTGTENHKPTEYSAFHFEKDNFLMTSCTPSKEEGYILLNIREIDGKRTNLRILNEDGQTIPFTIVNAIEEKLENETSEHIFEGYQNKFIKIKREGHHHHHH", "soluble on expression in E. coli": "soluble"},
      {"sequence": "MLREVVHRFGESDFTFLSVLDSYALLDRIDPAAFVKDEQMPYWAEIWPAAVTLSRQIVETGELAGKSVLELGAGVGMASIAAARSGARVLCTDYSTEALRFVAYNAMKNRVPLDTARLDWRMVKGAEKFDAVIAADVLYERVNLLPIVTAIDALLAPGGAAYIADPRRRLADQFLELVHENGFEVAETRMFDAEGDQTVAVTIYKLQRLKALEHHHHHH", "soluble on expression in E. coli": "not soluble"},
      {"sequence": "MGQSWGYEGIAKRSLCTHKWLYNLNLHSINLFLPIESKMSAQASRQKKSDQEQRAADQALLNAAIEDNAMEQDENFTVIDKLESSGISSGDISKLKEAGYYTYESLAFTTRRELRNVKGISDQKAEKIMKEAMKFVQMGFTTGAEVHVKRSQLVQIRTGSASLDRLLGGGIETGSITEVYGEYRTGKTQLCHSLAVLCQLPIDMGGGEGKCMYIDTNATFRPERIIAIAQRYNMDSAHVLENIAVARAYNSEHLMALIIRAGAMMSESRYAVVIVDCATAHFRNEYTGRGDLAERQMKLSAFLKCLAKLADEYGVAVIITNQVVAQVDGGASMFQADAKKPIGGHIIAHMSTTRLYLRKGKGENRVAKMVQSPNLPEAEATYSITNHGIEDARED", "soluble on expression in E. coli": "soluble"},
      {"sequence": "MSKLAIIAGDGIGPEVTAEAVKVLDAVVPGVQKTSYDLGARRFHATGEVLPDSVVAELRNHDAILLGAIGDPSVPSGVLERGLLLRLRFELDHHINLRPARLYPGVASPLSGNPGIDFVVVREGTEGPYTGNGGAIRVGTPNEVATEVSVNTAFGVRRVVADAFERARRRRKHLTLVHKTNVLTFAGGLWLRTVDEVGECYPDVEVAYQHVDAATIHMITDPGRFDVIVTDNLFGDIITDLAAAVCGGIGLAASGNIDATRANPSMFEPVHGSAPDIAGQGIADPTAAIMSVALLLSHLGEHDAAARVDRAVEAHLATRGSERLATSDVGERIAAAL", "soluble on expression in E. coli": "soluble"},
      {"sequence": "IETNRRERRIKRNKYLLSLYNNTNIKTSNFIYPLFIHEEDVEKKHTQLEGIYTYNVDGIIKEIEECIKLNIHHFMFFPVIREENKTVYCEESYNENSYFCKTISRIKEKFSDDIIVYTDVALDPYNIYGHDGIYDDNKKEILNDITVHTLVKQSLCLAKSGADVVCPSDSMDKRIELIRKNLDFHNFRDILILSYTCKYSSSMYKPFRSILNSNILKNFVKNKQSYQHDFNSYMDLNNVDKHIIEGADIIMVKPSMFYLDIIHKIKNRIKDDVQIPIAVYNVSGEYMMIKNYVKYLNEDINYENEIITELFKSYLRAGANIIITYFAKQYGLYMKKLYDKNIIIDDNSNNNFNIELTL", "soluble on expression in E. coli": "soluble"},
      {"sequence": "MNFHVMLTSSHETSFNFVVLLRANSKMKQQRNACRSCRLKECIKVGMNPRAVQGDIDTASTSSASPNLVSVEMHPYTNFREVECQTEVSTISSHPTSPSTLPFVSSGSSICSVSSSCSSVSTVYSNCLAMLPPNPSLPKYDYLLASLSRIFERVDEHAPEPLPNTYSFEHAFYNPHLICNRTKLTPTGERIATLPEVLQDFRRIFVLFTDVLSILPEFSRLDESDRMVLAKSRFSFFYWWLTCCWTAKVGCPGVCYANGAYHPSDKRQQAFPDVKGVTELSVETVSKPLANINITDAEMLVGSVFAIFYEYPLPPKVSYASTHILNEARDLYTQCMITVSPYSQLEAKSASRLAEISLIFSSITNLKYLTSDNIELSDVLHVMEVDQLITEAFDVHRPME", "soluble on expression in E. coli": "not soluble"},
      {"sequence": "SNAMADLLLGVNIDHIATLRNARGTIYPDPVQAAFIAEQAGADGITVHLREDRRHITDRDVRILRQTIQTRMNLEMAVTDEMVDIACDIKPHFCCLVPEKRQEVTTEGGLDVAGQVDKMTLAVGRLADVGILVSLFIDADFRQIDAAVAAGAPYIEIHTGAYADASTVLERQAELMRIAKAATYAAGKGLKVNAGHGLTYHNVQPIAALPEMHELNIGHAIIGQAVMTGLAAAVTDMKVLMREARR", "soluble on expression in E. coli": "soluble"},
      {"sequence": "MAVIVKYVVERNGEEKMTFTSKAEADAYDKMLDMADELFELLGKSALIEDEAKQEELAMFLAQNKEDVLCALGAKRKPAPATGKKPKAVADSDDDESVDDAA", "soluble on expression in E. coli": "not soluble"}
    ]}
  ]
}
